US20150344570A1 (published 2015)

How the values were obtained:
[1] = target: T1, FcγRIIIa extracellular domain with C-terminal His tag (human, UniProt P08637 17-208); assay: SPR (Biacore), relative binding activity; GpH7-A5/GpH7-B3/GpL16-k0 = 100
[2] = target: T1, FcγRIIIa extracellular domain with …; assay: SPR (Biacore), one H chain altered; HeCon Ab GpH7-A5/GpH7-B3/GpL16-k0 = 100
FcγRIIIa F = FcγRIIIa F (human, UniProt P08637 17-208); assay: SPR (Biacore), KD
FcγRIIIa V = FcγRIIIa V (human, UniProt P08637 17-208); assay: SPR (Biacore), KD
Chain of FcγRIIIa V (P08637 17-208): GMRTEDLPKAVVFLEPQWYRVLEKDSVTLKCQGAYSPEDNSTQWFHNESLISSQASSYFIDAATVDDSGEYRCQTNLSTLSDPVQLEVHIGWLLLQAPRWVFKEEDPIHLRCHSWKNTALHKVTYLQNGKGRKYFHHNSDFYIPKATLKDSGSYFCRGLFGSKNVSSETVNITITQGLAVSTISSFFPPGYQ

T1 sequence (P08637 17-208): as above
Chain of FcγRIIIa F (P08637 17-208): as above

FcγRIIIa BINDING ACTIVITY [1] | further results | Binder
140% | He/Con_3a [2]: 135% | GpH7-A5/GpH7-B3-03-20W/GpL16-k0 (antibody, human IgG1, kappa, G236W in the GpH7-B3 chain only; also called He Ab G236_20W; GpH7-A5/GpH7-B3 variant G236_20W/GpL16-k0) heavy 1: not shown heavy 2: not shown light: DIVMTQSPLSLPVTPGEPASISCQASESLVHSNRNTYLHWYLQKPGQSPQLLIYKVSNRFSGVPDRFSGSGSGTDFTLKISRVEAEDVGVYYCSQNTHVPPTFGQGTKVEIERTVAAPSVFIFPPSDEQLKSGTASVVCLLNNFYPREAKVQWKVDNALQSGNSQESVTEQDSKDSTYSLSSTLTLSKADYEKHKVYACEVTHQGLSSPVTKSFNRGEC
131% | He/Con_3a [2]: 130% | GpH7-A5/GpH7-B3-01-15Y/GpL16-k0 (antibody, human IgG1, kappa, L234Y in the GpH7-B3 chain only; also called He Ab L234_15Y; GpH7-A5/GpH7-B3 variant L234_15Y/GpL16-k0) heavy 1: not shown heavy 2: not shown light: DIVMTQSPLSLPVTPGEPASISCQASESLVHSNRNTYLHWYLQKPGQSPQLLIYKVSNRFSGVPDRFSGSGSGTDFTLKISRVEAEDVGVYYCSQNTHVPPTFGQGTKVEIERTVAAPSVFIFPPSDEQLKSGTASVVCLLNNFYPREAKVQWKVDNALQSGNSQESVTEQDSKDSTYSLSSTLTLSKADYEKHKVYACEVTHQGLSSPVTKSFNRGEC
168% |  | GpH7-TA4/GpH7-B3/GpL16-k0 (antibody, human IgG1, kappa, H1 L234Y and G236W) heavy 1: QVQLVQSGAEVKKPGASVTVSCKASGYTFTDYEMHWIRQPPGEGLEWIGAIDPKTGDTAYSESFQDRVTLTADKSTSTAYMELSSLTSEDTAVYYCTRFYSYTYWGQGTLVTVSSASTKGPSVFPLAPSSKSTSGGTAALGCLVKDYFPEPVTVSWNSGALTSGVHTFPAVLQSSGLYSLSSVVTVPSSSLGTQTYICNVNHKPSNTKVDKKVEPKSCDKTHTCPPCPAPEYLWGPSVFLFPPKPKDTLMISRTPEVTCVVVDVSHEDPEVKFNWYVDGVEVHNAKTKPREEQYNSTYRVVSVLTVLHQDWLNGKEYKCKVSNKALPAPIEKTISKAKGQPREPQVYTLPPSRKELTKNQVSLTCLVKGFYPSDIAVEWESNGQPENNYKTTPPVLDSDGSFFLYSKLTVDKSRWQQGNVFSCSVMHEALHNRYTQKSLSLSP heavy 2: not shown light: DIVMTQSPLSLPVTPGEPASISCQASESLVHSNRNTYLHWYLQKPGQSPQLLIYKVSNRFSGVPDRFSGSGSGTDFTLKISRVEAEDVGVYYCSQNTHVPPTFGQGTKVEIERTVAAPSVFIFPPSDEQLKSGTASVVCLLNNFYPREAKVQWKVDNALQSGNSQESVTEQDSKDSTYSLSSTLTLSKADYEKHKVYACEVTHQGLSSPVTKSFNRGEC
142% |  | GpH7-TA1/GpH7-B3-15-02A/GpL16-k0 (antibody, human IgG1, kappa, H1 L234Y; H2 S298A) heavy 1: QVQLVQSGAEVKKPGASVTVSCKASGYTFTDYEMHWIRQPPGEGLEWIGAIDPKTGDTAYSESFQDRVTLTADKSTSTAYMELSSLTSEDTAVYYCTRFYSYTYWGQGTLVTVSSASTKGPSVFPLAPSSKSTSGGTAALGCLVKDYFPEPVTVSWNSGALTSGVHTFPAVLQSSGLYSLSSVVTVPSSSLGTQTYICNVNHKPSNTKVDKKVEPKSCDKTHTCPPCPAPEYLGGPSVFLFPPKPKDTLMISRTPEVTCVVVDVSHEDPEVKFNWYVDGVEVHNAKTKPREEQYNSTYRVVSVLTVLHQDWLNGKEYKCKVSNKALPAPIEKTISKAKGQPREPQVYTLPPSRKELTKNQVSLTCLVKGFYPSDIAVEWESNGQPENNYKTTPPVLDSDGSFFLYSKLTVDKSRWQQGNVFSCSVMHEALHNRYTQKSLSLSP heavy 2: not shown light: DIVMTQSPLSLPVTPGEPASISCQASESLVHSNRNTYLHWYLQKPGQSPQLLIYKVSNRFSGVPDRFSGSGSGTDFTLKISRVEAEDVGVYYCSQNTHVPPTFGQGTKVEIERTVAAPSVFIFPPSDEQLKSGTASVVCLLNNFYPREAKVQWKVDNALQSGNSQESVTEQDSKDSTYSLSSTLTLSKADYEKHKVYACEVTHQGLSSPVTKSFNRGEC
208% |  | GpH7-TA5/GpH7-B3/GpL16-k0 (antibody, human IgG1, kappa, H1 L234Y and S298A) heavy 1: QVQLVQSGAEVKKPGASVTVSCKASGYTFTDYEMHWIRQPPGEGLEWIGAIDPKTGDTAYSESFQDRVTLTADKSTSTAYMELSSLTSEDTAVYYCTRFYSYTYWGQGTLVTVSSASTKGPSVFPLAPSSKSTSGGTAALGCLVKDYFPEPVTVSWNSGALTSGVHTFPAVLQSSGLYSLSSVVTVPSSSLGTQTYICNVNHKPSNTKVDKKVEPKSCDKTHTCPPCPAPEYLGGPSVFLFPPKPKDTLMISRTPEVTCVVVDVSHEDPEVKFNWYVDGVEVHNAKTKPREEQYNATYRVVSVLTVLHQDWLNGKEYKCKVSNKALPAPIEKTISKAKGQPREPQVYTLPPSRKELTKNQVSLTCLVKGFYPSDIAVEWESNGQPENNYKTTPPVLDSDGSFFLYSKLTVDKSRWQQGNVFSCSVMHEALHNRYTQKSLSLSP heavy 2: not shown light: DIVMTQSPLSLPVTPGEPASISCQASESLVHSNRNTYLHWYLQKPGQSPQLLIYKVSNRFSGVPDRFSGSGSGTDFTLKISRVEAEDVGVYYCSQNTHVPPTFGQGTKVEIERTVAAPSVFIFPPSDEQLKSGTASVVCLLNNFYPREAKVQWKVDNALQSGNSQESVTEQDSKDSTYSLSSTLTLSKADYEKHKVYACEVTHQGLSSPVTKSFNRGEC
70% |  | GpH7-TA3/GpH7-B3-03-20W/GpL16-k0 (antibody, human IgG1, kappa, H1 S298A; H2 G236W) heavy 1: QVQLVQSGAEVKKPGASVTVSCKASGYTFTDYEMHWIRQPPGEGLEWIGAIDPKTGDTAYSESFQDRVTLTADKSTSTAYMELSSLTSEDTAVYYCTRFYSYTYWGQGTLVTVSSASTKGPSVFPLAPSSKSTSGGTAALGCLVKDYFPEPVTVSWNSGALTSGVHTFPAVLQSSGLYSLSSVVTVPSSSLGTQTYICNVNHKPSNTKVDKKVEPKSCDKTHTCPPCPAPELLGGPSVFLFPPKPKDTLMISRTPEVTCVVVDVSHEDPEVKFNWYVDGVEVHNAKTKPREEQYNATYRVVSVLTVLHQDWLNGKEYKCKVSNKALPAPIEKTISKAKGQPREPQVYTLPPSRKELTKNQVSLTCLVKGFYPSDIAVEWESNGQPENNYKTTPPVLDSDGSFFLYSKLTVDKSRWQQGNVFSCSVMHEALHNRYTQKSLSLSP heavy 2: not shown light: DIVMTQSPLSLPVTPGEPASISCQASESLVHSNRNTYLHWYLQKPGQSPQLLIYKVSNRFSGVPDRFSGSGSGTDFTLKISRVEAEDVGVYYCSQNTHVPPTFGQGTKVEIERTVAAPSVFIFPPSDEQLKSGTASVVCLLNNFYPREAKVQWKVDNALQSGNSQESVTEQDSKDSTYSLSSTLTLSKADYEKHKVYACEVTHQGLSSPVTKSFNRGEC
228% |  | GpH7-TA6/GpH7-B3/GpL16-k0 (antibody, human IgG1, kappa, H1 G236W and S298A) heavy 1: QVQLVQSGAEVKKPGASVTVSCKASGYTFTDYEMHWIRQPPGEGLEWIGAIDPKTGDTAYSESFQDRVTLTADKSTSTAYMELSSLTSEDTAVYYCTRFYSYTYWGQGTLVTVSSASTKGPSVFPLAPSSKSTSGGTAALGCLVKDYFPEPVTVSWNSGALTSGVHTFPAVLQSSGLYSLSSVVTVPSSSLGTQTYICNVNHKPSNTKVDKKVEPKSCDKTHTCPPCPAPELLWGPSVFLFPPKPKDTLMISRTPEVTCVVVDVSHEDPEVKFNWYVDGVEVHNAKTKPREEQYNATYRVVSVLTVLHQDWLNGKEYKCKVSNKALPAPIEKTISKAKGQPREPQVYTLPPSRKELTKNQVSLTCLVKGFYPSDIAVEWESNGQPENNYKTTPPVLDSDGSFFLYSKLTVDKSRWQQGNVFSCSVMHEALHNRYTQKSLSLSP heavy 2: not shown light: DIVMTQSPLSLPVTPGEPASISCQASESLVHSNRNTYLHWYLQKPGQSPQLLIYKVSNRFSGVPDRFSGSGSGTDFTLKISRVEAEDVGVYYCSQNTHVPPTFGQGTKVEIERTVAAPSVFIFPPSDEQLKSGTASVVCLLNNFYPREAKVQWKVDNALQSGNSQESVTEQDSKDSTYSLSSTLTLSKADYEKHKVYACEVTHQGLSSPVTKSFNRGEC
 | fold binding against the variant before introduction of I332E and Y235N (FcγRIIIa F): 2 times; fold binding against the variant before introduction of I332E and Y235N (FcγRIIIa V): 8 times | H240-Kn192/H240-Hl204/L73-k0 (antibody, human IgG1, kappa, Y235N and E294K in H240-Kn120; G236T and I332E in H240-Hl068; also called H240-Kn192/H240-HI204/L73-k0) heavy 1: QDQLVQSGAEVKKPGASVKVSCKASGFNIKDTYIQWVRQAPGQGLEWMGRIDPLRKQTKYREKFEGRVTITADTSTNTAYMELSSLRSEDTAVYYCVRSGREFDYWGQGTLVTVSSASTKGPSVFPLAPSSKSTSGGTAALGCLVKDYFPEPVTVSWNSGALTSGVHTFPAVLQSSGLYSLSSVVTVPSSSLGTQTYICNVNHKPSNTKVDKKVEPKSCDKTHTCPPCPAPEYNWGPMVFLFPPKPKDTLMISRTPEVTCVVVDVSDEDPEVKFNWYVDGVEVHNAKTKPREKQYNATYRVVSVLTVLHQDWLNGKEYKCKVSNKDLPAPIEKTISKAKGQPREPQVCTLPPSRDELTKNQVSLWCLVKGFYPSDIAVEWESNGQPENNYKTTPPVLDSDGSFFLYSKLTVDKSRWQQGNVFSCSVMHEALHNHYTQKSLSLSP heavy 2: QDQLVQSGAEVKKPGASVKVSCKASGFNIKDTYIQWVRQAPGQGLEWMGRIDPLRKQTKYREKFEGRVTITADTSTNTAYMELSSLRSEDTAVYYCVRSGREFDYWGQGTLVTVSSASTKGPSVFPLAPSSKSTSGGTAALGCLVKDYFPEPVTVSWNSGALTSGVHTFPAVLQSSGLYSLSSVVTVPSSSLGTQTYICNVNHKPSNTKVDKKVEPKSCDKTHTCPPCPAPELLTGPSVFLFPPKPKDTLMISRTPEVTCVVVDVSHEEPEVKFNWYVDGVEVHNAKTKPREEQYNSTYRVVSVLTVLHQDWLNGKEYKCKVSNDALPKPEEETISKAKGQPREPQVYTLPPSRCELTKNQVSLSCAVKGFYPSDIAVEWESNGQPENNYKTTPPVLDSDGSFFLVSKLTVDKSRWQQGNVFSCSVMHEALHNHYTQKSLSLSP light: DIQMTQSPSSLSASVGDRVTITCRASQDIHKYIAWYQQKPGQAPRLLIQYTSTLQPGVPSRFSGSGSGTDYTFTISSLQPEDIATYYCLQYEQLRTFGGGTKVEIKRTVAAPSVFIFPPSDEQLKSGTASVVCLLNNFYPREAKVQWKVDNALQSGNSQESVTEQDSKDSTYSLSSTLTLSKADYEKHKVYACEVTHQGLSSPVTKSFNRGEC
